Laboratory results from doi:10.1101/2021.09.17.460839, “Structural and functional characterization of Rv0792c from Mycobacterium tuberculosis: identifying small molecule inhibitors against GntR protein” (bioRxiv, 2021).

Target: the molecule itself
Assay: AUC

B1: (His)6-Rv0792c, wild type, GntR family (HutC subfamily) transcription factor from M. tuberculosis (natural protein)
chain: MTSVKLDLDAADLRISRGSVPASTQLAEALKAQIIQQRLPRGGRLPSERELIDRSGLSRVTVRAAVGMLQRQGWLVRRQGLGTFVADPVEQELSCGVRTITEVLLSCGVTPQVDVLSHQTGPAPQRISETLGLVEVLCIRRRIRTGDQPLALVTAYLPPGVGPAVEPLLSGSADTETTYAMWERRLGVRIAQATHEIHAAGASPDVADALGLAVGSPVLVVDRTSYTNDGKPLEVVVFHHRPERYQFSVTLPRTLPGSGAGIIEKRDFA
notes: not shown: His6, N-terminal, kept
  stoichiometry N: 2
